The labels stand for the following.
B1: 12(66) (ssDNA)
DNA: CCTGGACGGAACCAGAATACTTTTGGTCTCCAGG
modifications: 2'-OMe C7,G9,A14,G15,A19,C20,A32,G33,G34; 5' 40 kDa PEG (GL2-400TS) via ssH linker; 3' idT
B2: 12(67) (ssDNA)
DNA: B1 DNA
modifications: 2'-OMe C7,G9,A14,G15,A19,C20,A32,G33,G34; 5' 40 kDa PEG (GL4-400TS) via ssH linker; 3' idT

This note sets out measurements from patent publication US20170137818, “APTAMER INHIBITING BIOLOGICAL ACTIVITY OF AUTOTAXIN BY BINDING WITH AUTOTAXIN, AND USE THEREOF” (RIBOMIC INC., published 2017).

The target in this data set is autotaxin (ENPP2/NPP2) (Homo sapiens, UniProt Q13822 Q13822:36-863). The experiment in a line: inhibition; LPA production, 0.10 uM aptamer, ~92% serum, 37C 3 h.
Turning to CCTGGACGGAACCAGAATACTTTTGGTCTCCAGG (ssDNA, 2'-OMe C7,G9,A14,G15,A19,C20,A32,G33,G34; P-methyl C2; idT 5' and 3') [12(58)], the activity was determined as 69 % inhibition.

For the molecule CCTGGACGGAACCAGAATACTTTTGGTCTCCAGG (ssDNA, 2'-OMe U3,C7,G9,A14,G15,A19,C20,A32,G33,G34; idT 5' and 3') [12(68)], the activity is 53 % inhibition.

CCTGGACGGAACCAGAATACTTTTGGTCTCCAGG (ssDNA, 2'-OMe C7,G9,A14,G15,A19,C20,U22,A32,G33,G34; idT 5' and 3') [12(73)] registered an activity of 11 % inhibition.

The molecule CCTGGACGGAACCAGAATACTTTTGGTCTCCAGG (ssDNA, 2'-OMe C7,G9,A14,G15,A19,C20,A32,G33,G34; P-methyl T18; idT 5' and 3') [12(60)] showed an activity of 50 % inhibition.

Take CCTGGACGGAACCAGAATACTTTTGGTCTCCAGG (ssDNA, 2'-OMe C7,G9,A14,G15,A19,C20,A32,G33,G34; PS after A6; idT 5' and 3') [12(76)]: the activity turned out to be 67 % inhibition.

In the case of CCTGGACGGAACCAGAATACTTTTGGTCTCCAGG (ssDNA, 2'-OMe C7,G9,A14,G15,A19,C20,A32,G33,G34; PS after T23; idT 5' and 3') [12(87)], the activity worked out at 70 % inhibition.

CCTGGACGGAACCAGAATACTTTTGGTCTCCAGG (ssDNA, 2'-OMe C7,G9,A14,G15,A19,C20,A32,G33,G34; PS after C2; idT 5' and 3') [12(108)] showed an activity of 68 % inhibition.

On to CCTGGACGGAACCAGAATACTTTTGGTCTCCAGG (ssDNA, 2'-OMe C7,G9,A14,G15,A19,C20,A32,G33,G34; PS after A16; idT 5' and 3') [12(99)], for which the activity came out at 81 % inhibition.

CCTGGACGGAACCAGAATACTTTTGGTCTCCAGG (ssDNA, 2'-OMe C7,G9,A14,G15,A19,C20,A32,G33,G34; PS after C13; idT 5' and 3') [12(81)] showed an activity of 70 % inhibition.

In the case of CCTGGACGGAACCAGAATACTTTTGGTCTCCAGG (ssDNA, 2'-OMe C7,G9,A14,G15,A19,C20,A32,G33,G34; PS after G15; idT 5' and 3') [12(98)], the activity turned out to be 76 % inhibition.

With CCTGGACGGAACCAGAATACTTTTGGTCTCCAGG (ssDNA, 2'-OMe C7,G9,A14,G15,A19,C20,A32,G33,G34; PS after C28; idT 5' and 3') [12(86)], the activity came out at 57 % inhibition.

Regarding CCTGGACGGAACCAGAATACTTTTGGTCTCCAGG (ssDNA, 2'-OMe C7,G9,A14,G15,A19,A32,G33,G34; P-methyl C20; idT 5' and 3') [12(65)], the activity amounted to 57 % inhibition.

Molecule B1 registered an activity of 77 % inhibition.

CCTGGACGGAACCAGAATACTTTTGGTCTCCAGG (ssDNA, 2'-OMe C7,G9,A14,G15,A19,C20,A32,G33,G34; PS after T22; idT 5' and 3') [12(104)] returned an activity of 74 % inhibition.

For the molecule CCTGGACGGAACCAGAATACTTTTGGTCTCCAGG (ssDNA, 2'-OMe C7,G9,A14,G15,A19,C20,A32,G33,G34; PS after A10; idT 5' and 3') [12(78)], the activity was 62 % inhibition.

As for CCTGGACGGAACCAGAATACTTTTGGTCTCCAGG (ssDNA, 2'-OMe C7,G9,A14,G15,A19,C20,G33,G34; P-methyl A32; idT 5' and 3') [12(63)], the activity stood at 59 % inhibition.

CCTGGACGGAACCAGAATACTTTTGGTCTCCAGG (ssDNA, 2'-OMe C7,G9,A14,G15,A19,C20,A32,G33,G34; PS after G4; idT 5' and 3') [12(110)]: the activity stood at 63 % inhibition.

In turn, CCTGGACGGAACCAGAATACTTTTGGTCTCCAGG (ssDNA, 2'-OMe C7,G9,A14,G15,A19,C20,A32,G33,G34; PS after C12; idT 5' and 3') [12(80)] yielded an activity of 85 % inhibition.

CCTGGACGGAACCAGAATACTTTTGGTCTCCAGG (ssDNA, 2'-OMe C7,G9,A14,G15,A19,C20,A32,G33,G34; PS after C20; idT 5' and 3') [12(102)] registered an activity of 72 % inhibition.

CCTGGACGGAACCAGAATACTTTTGGTCTCCAGG (ssDNA, 2'-OMe C7,G9,A14,G15,A19,C20,A32,G33,G34; P-methyl C28; idT 5' and 3') [12(62)] showed an activity of 75 % inhibition.

With B2, the activity was determined as 74 % inhibition.

Regarding CCTGGACGGAACCAGAATACTTTTGGTCTCCAGG (ssDNA, 2'-OMe C7,G9,A14,G15,A19,C20,A32,G33,G34; P-methyl G4; idT 5' and 3') [12(59)], the activity turned out to be 71 % inhibition.

CCTGGACGGAACCAGAATACTTTTGGTCTCCAGG (ssDNA, 2'-OMe C7,G9,A14,G15,U18,A19,C20,A32,G33,G34; idT 5' and 3') [12(75)] returned an activity of 65 % inhibition.

In the case of CCTGGACGGAACCAGAATACTTTTGGTCTCCAGG (ssDNA, 2'-OMe C7,G9,A14,G15,A19,C20,A32,G33,G34; PS after A17; idT 5' and 3') [12(100)], the activity worked out at 80 % inhibition.

Consider CCTGGACGGAACCAGAATACTTTTGGTCTCCAGG (ssDNA, 2'-OMe C7,G9,A14,G15,A19,C20,A32,G33,G34; PS after A11; idT 5' and 3') [12(79)], for which the activity was determined as 37 % inhibition.

CCTGGACGGAACCAGAATACTTTTGGTCTCCAGG (ssDNA, 2'-OMe C7,G9,A14,G15,A19,C20,A32,G33,G34; PS after G25; idT 5' and 3') [12(83)] returned an activity of 54 % inhibition.

Turning to CCTGGACGGAACCAGAATACTTTTGGTCTCCAGG (ssDNA, 2'-OMe C7,G9,A14,G15,A19,C20,U23,A32,G33,G34; idT 5' and 3') [12(70)], the activity is 9 % inhibition.

Consider CCTGGACGGAACCAGAATACTTTTGGTCTCCAGG (ssDNA, 2'-OMe C7,G9,A14,G15,A19,C20,A32,G33,G34; PS after T24; idT 5' and 3') [12(82)], for which the activity was 51 % inhibition.

Molecule CCTGGACGGAACCAGAATACTTTTGGTCTCCAGG (ssDNA, 2'-OMe C7,G9,A14,G15,A19,C20,A32,G33,G34; P-methyl G25; idT 5' and 3') [12(90)] gave an activity of 63 % inhibition.

In the case of CCTGGACGGAACCAGAATACTTTTGGTCTCCAGG (ssDNA, 2'-OMe C7,G9,A14,G15,A19,C20,A32,G33,G34; PS after C7; idT 5' and 3') [12(106)], the activity turned out to be 68 % inhibition.

CCTGGACGGAACCAGAATACTTTTGGTCTCCAGG (ssDNA, 2'-OMe C7,G9,A14,G15,A19,C20,A32,G33,G34; P-methyl A6; idT 5' and 3') [12(95)] came in with an activity of 64 % inhibition.

In turn, CCTGGACGGAACCAGAATACTTTTGGTCTCCAGG (ssDNA, 2'-OMe C7,G9,A14,G15,A19,C20,A32,G33,G34; PS after T21; idT 5' and 3') [12(103)] gave an activity of 88 % inhibition.

The molecule CCTGGACGGAACCAGAATACTTTTGGTCTCCAGG (ssDNA, 2'-OMe C7,G9,A14,G15,A19,C20,A32,G33,G34; PS after T18; idT 5' and 3') [12(101)] showed an activity of 81 % inhibition.

The molecule CCTGGACGGAACCAGAATACTTTTGGTCTCCAGG (ssDNA, 2'-OMe C7,G9,A14,G15,A19,C20,A32,G33,G34; PS after T27; idT 5' and 3') [12(85)] gave an activity of 68 % inhibition.

In turn, CCTGGACGGAACCAGAATACTTTTGGTCTCCAGG (ssDNA, 2'-OMe C7,G9,A14,G15,A19,C20,A32,G33,G34; P-methyl G26; idT 5' and 3') [12(89)] registered an activity of 48 % inhibition.

CCTGGACGGAACCAGAATACTTTTGGTCTCCAGG (ssDNA, 2'-OMe C7,G9,A14,A19,C20,A32,G33,G34; P-methyl G15; idT 5' and 3') [12(64)] had an activity of 63 % inhibition.

Molecule CCTGGACGGAACCAGAATACTTTTGGTCTCCAGG (ssDNA, 2'-OMe C7,G9,A14,G15,A19,C20,U29,A32,G33,G34; idT 5' and 3') [12(71)] displayed an activity of 31 % inhibition.

Molecule CCTGGACGGAACCAGAATACTTTTGGTCTCCAGG (ssDNA, 2'-OMe C7,G9,A14,G15,A19,C20,A32,G33,G34; PS after T3; idT 5' and 3') [12(109)] yielded an activity of 68 % inhibition.

Molecule CCTGGACGGAACCAGAATACTTTTGGTCTCCAGG (ssDNA, 2'-OMe C7,G9,A14,G15,A19,C20,A32,G33,G34; PS after C1; idT 5' and 3') [12(107)] showed an activity of 75 % inhibition.

For CCTGGACGGAACCAGAATACTTTTGGTCTCCAGG (ssDNA, 2'-OMe C7,G9,A14,G15,A19,C20,U21,A32,G33,G34; idT 5' and 3') [12(74)], the activity turned out to be 31 % inhibition.

With CCTGGACGGAACCAGAATACTTTTGGTCTCCAGG (ssDNA, 2'-OMe C7,G9,A14,G15,A19,C20,A32,G33,G34; P-methyl C13; idT 5' and 3') [12(91)], the activity turned out to be 58 % inhibition.

In turn, CCTGGACGGAACCAGAATACTTTTGGTCTCCAGG (ssDNA, 2'-OMe C7,G9,A14,G15,A19,C20,A32,G33,G34; P-methyl T29; idT 5' and 3') [12(96)] registered an activity of 76 % inhibition.
